± gives the standard deviation of the averaged measurements.
Test system: Saccharomyces cerevisiae
Assay: protein stability index of tFT-peptide fusion (C-terminal peptide) (PSI (0-1 scale)); higher = more stable (slower turnover)
Details: genetic background: wild type; temperature: 30 C
Experimental: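 Multiplexed protein stability (MPS) profiling in S. cerevisiae. Random 12-aa peptides (tFT-X12 library) are fused to the C-terminus of a sfGFP-mCherry tandem fluorescent timer, after mCherry and a GGGS linker. Cells are FACS-sorted into 8 mCherry/sfGFP bins and deep-sequenced. The protein stability index (PSI) is the read-weighted bin average, scaled from 0 (unstable) to 1 (stable). Only peptides with >10 reads are reported; cells were grown at 30 °C in SC-His with glucose.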
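Also: PSI is a weighted mean of sequencing reads over stability bins, variants kept only with over 10 reads, mCherry proximal and sfGFP distal, peptide attached via GGGS linker.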

Sequence | protein stability index
VWAWGACPRGEG | 0.6429 ± 0.0016
PPGQPPARSSPV | 0.706 ± 0.013
ALWGHSWHSSLR | 0.713 ± 0.015
PLPPPPALILFP | 0.6856 ± 0.003
CPVFYRYCHPPH | 0.707 ± 0.047
SPPPPPPRPLTP | 0.672 ± 0.027
PSPLRASPTAVF | 0.62 ± 0.013
PPPSSPSPPRCR | 0.733 ± 0.1
RITTVPNSNPGN | 0.689 ± 0.08
GSVLPPPSSPPL | 0.704 ± 0.013
GKEKGRAEGRDG | 0.701 ± 0.023
GEGKAGGESEEP | 0.62 ± 0.068
RKAEWIKQYDMH | 0.479 ± 0.072
CPRRVAVAGETS | 0.697 ± 0.044
WCFVGLVNTCRI | 0.617 ± 0.025
PSLPPPRRPLSP | 0.671 ± 0.017
GDSESRTWCQNL | 0.548 ± 0.02
PSLLSSPPPPLL | 0.737 ± 0.073
GYRMEGRVDSGG | 0.6495 ± 0.004
CLCLCFLDYKAC | 0.5731 ± 0.0051
CSRLDVSEVVGD | 0.663 ± 0.074
TFTESRLRMRLG | 0.623 ± 0.086
EGHREARGGMAR | 0.673 ± 0.018
SSPSPSPPHLHP | 0.712 ± 0.02
GGGRGGGEWVGG | 0.651 ± 0.043

Sequence | protein stability index
IRGGSRLPFYSS | 0.731 ± 0.013
DGSFWKGQGAGV | 0.671 ± 0.011
LHPPRPTPKHPA | 0.608 ± 0.0093
KNKMGRKYTLPH | 0.654 ± 0.081
SIIRDKERNNYK | 0.654 ± 0.015
QDLLNVSSFTRS | 0.727 ± 0.017
APSPPPRISAWL | 0.749 ± 0.045
PPFTPLSCLPPP | 0.708 ± 0.038
NGRPGPAEPELW | 0.692 ± 0.043
PPRSRPLPALPS | 0.647 ± 0.044
IGIIFTKCGGRT | 0.688 ± 0.037
PYPVTLSRPTPT | 0.611 ± 0.15
PLSSPFPPSHPL | 0.763 ± 0.029
VVGRWGWACCRP | 0.681 ± 0.071
HPNGVMIGKNPT | 0.702 ± 0.023
SIFVNICRRMKC | 0.616 ± 0.014
PPLTPPPPTPPP | 0.635 ± 0.057
GPGSGWWVSCSL | 0.751 ± 0.04
GTALERMWLEIE | 0.7387 ± 0.0024
CSLPPSPAVPPP | 0.644 ± 0.022
FPFSDFVFLFCF | 0.57 ± 0.011
IGLFWSGFFYGV | 0.743 ± 0.038
PPPLASRLLSFL | 0.713 ± 0.022
LFAHPPSPPSAP | 0.654 ± 0.016
KKKKKKEYTKTN | 0.718 ± 0.011

Sequence | protein stability index
GDMKCVTRDSFI | 0.638 ± 0.054
VFCGACRLHLCL | 0.69 ± 0.077
AASPRDPQKDHA | 0.711 ± 0.057
LAFSGAWGILPL | 0.682 ± 0.067
HSSPHFTTTKTP | 0.7081 ± 0.0016
ALPPPPPPSPLL | 0.642 ± 0.035
ESLAKLPLRRPR | 0.63 ± 0.011
GAGGVWVRAWGP | 0.768 ± 0.095
DESWCVPCPSSL | 0.648 ± 0.0065
PDGTGPLCAPEP | 0.646 ± 0.059
SLLLPTPPPFRP | 0.644 ± 0.028
CCFHRLRYSRAV | 0.647 ± 0.02
HPPAPSPPETSL | 0.69756 ± 0.0005
SCLFGIFRWWVG | 0.568 ± 0.025
RSRKICYREEKR | 0.644 ± 0.029
IGVRSPSTHIVN | 0.72 ± 0.018
CTTSCARWVTTW | 0.647 ± 0.02
WGRRWRCAGRGG | 0.656 ± 0.056
GVRGKDCMGGGM | 0.613 ± 0.063
VTEGVGGGKGRG | 0.597 ± 0.056
PPPPYPPHPPSA | 0.712 ± 0.027
SRLGVGGGLCSW | 0.714 ± 0.11
IYTRVWPQSWLP | 0.696 ± 0.038
VGPLYFPWSLNF | 0.692 ± 0.053
CGVYGRVVEWGG | 0.706 ± 0.042

Sequence | protein stability index
RFRYFSPLSTTS | 0.671 ± 0.027
CSCSTFWFFFGR | 0.724 ± 0.026
TNATENKNRHPN | 0.741 ± 0.068
FLFSDLVCSSVF | 0.704 ± 0.027
VWGRGWVVGWFL | 0.612 ± 0.066
YIHGFRLFGCVD | 0.668 ± 0.031
WPCGGLRFSLPY | 0.674 ± 0.029
RGVAGSTLGLRI | 0.566 ± 0.069
GPPFPPLPLPPP | 0.658 ± 0.079
SLGNTRRTKKSI | 0.636 ± 0.054
GRKLLAGPDGDI | 0.658 ± 0.039
KTNKKTIVKSQT | 0.674 ± 0.046
LSDGATDIGCLL | 0.741 ± 0.037
QSAGGTRAKFGG | 0.658 ± 0.053
PPPPRPLKLFPP | 0.588 ± 0.014
PIPPDGGSPPSP | 0.714
LLLTGYGLLPST | 0.676 ± 0.079
FRCSLLGGYTLE | 0.737 ± 0.092
PPRRLPALPSPL | 0.774 ± 0.014
CNSRVSAVGLII | 0.6303 ± 0.0018
CCGGRTWFVCGV | 0.699 ± 0.041
YNMGILASQGCG | 0.665 ± 0.046
VLSGLPPGFTLV | 0.644 ± 0.012
RAAPQEDFTFYR | 0.771 ± 0.14
FYGLPSVVCGWF | 0.671 ± 0.025

Sequence | protein stability index
HIPRLPRPTRAP | 0.682 ± 0.059
PVALYFIREFSP | 0.699 ± 0.013
PPRATPPFPLPP | 0.648 ± 0.031
SPGTFLSLRMSI | 0.703 ± 0.015
LPPTLPPPPPAL | 0.724 ± 0.032
RTSQLVSRATLD | 0.691 ± 0.019
MSLSYYFSPVYS | 0.625 ± 0.044
SSLNLLIHTAPL | 0.739 ± 0.023
RGFGSLSKPMCH | 0.711 ± 0.012
VEEDPSSQLVIF | 0.599 ± 0.01
GKQKKKHRRNLK | 0.743 ± 0.12
AERCCLHPPIPA | 0.541 ± 0.033
SLYVRRCKEASK | 0.6894 ± 0.0023
KIMIRKIEIKKE | 0.69 ± 0.049
SSQVELPVSVVW | 0.649 ± 0.058
SWFVGFDGAVGG | 0.774 ± 0.088
STPSPSPTGLSR | 0.597 ± 0.065
QFQRTLCGKRWV | 0.685 ± 0.043
HLPSPLPSPSFH | 0.6061 ± 0.0017
MGLRDPEWSGDI | 0.673 ± 0.018
SCLRCSCLTEVL | 0.614 ± 0.021
LVRPGSTRDKRT | 0.736 ± 0.034
WGLGVFALKTLL | 0.623 ± 0.034
AGGWVGAEGCGG | 0.763 ± 0.024
PARPSPRPHLPD | 0.692 ± 0.04

Sequence | protein stability index
LHRLRLASRAAL | 0.719 ± 0.068
LFCHHCASLVDL | 0.722 ± 0.002
TRGTRGWGSVVG | 0.735 ± 0.018
SSDLSNVQTQRL | 0.708 ± 0.065
YFVSCACSSYFV | 0.601 ± 0.02
RSALVPPRLPAS | 0.675 ± 0.075
SCVGCLYMYWSL | 0.6102 ± 0.0049
TEGGKIEGGGRK | 0.682 ± 0.087
ACSPGHCTTGTS | 0.649 ± 0.021
VHWRDARFLRGM | 0.658 ± 0.045
RINGPLHRLSVA | 0.657 ± 0.015
TLTVCVNQGMTM | 0.668 ± 0.024
QCLTVPRSAHLP | 0.607 ± 0.05
LHSRLPPCRRHV | 0.674 ± 0.021
VGQVGAGAVPVG | 0.677 ± 0.037
HVPHFCLSPTII | 0.758 ± 0.14
TCFYYVGGEKCM | 0.665 ± 0.0077
NVSFHRSHLLYF | 0.654 ± 0.0067
YPIFSPFSLPAL | 0.59 ± 0.0073
VLPRPLPALPPL | 0.683 ± 0.028
PLILRSLFIFPV | 0.641 ± 0.037
VGRVGVREGVVG | 0.638 ± 0.067
HLSPGRLPPPVQ | 0.7136 ± 0.006
AGTCVSVGVHRY | 0.599 ± 0.051
FCLSVVELRGLM | 0.672 ± 0.049

Sequence | protein stability index
SVVGNYHQTEPV | 0.702 ± 0.059
LSFFGPPFPISF | 0.74 ± 0.043
ALPAGLRDLPRP | 0.586 ± 0.025
LACTGFPPPFPL | 0.675 ± 0.017
PPPLLAPHPPPP | 0.697 ± 0.01
TDHTNCARDLGA | 0.664 ± 0.054
DYRTLGPAPDKS | 0.74 ± 0.035
PQRTPPRPNKPP | 0.556 ± 0.013
GWRAGGTGAPSR | 0.653 ± 0.041
CGLCLGGEWLVG | 0.701 ± 0.026
IGWCRLRDRLVS | 0.556 ± 0.048
VCESAGERVMGG | 0.705 ± 0.051
PFRSFVFSLDPF | 0.725 ± 0.049
GDCIDCFKLVGI | 0.711 ± 0.035
SPIVLTYHYLCR | 0.666 ± 0.0087
NSVPSPSRSLPP | 0.666 ± 0.081
SPVPRPGTTRRP | 0.721 ± 0.031
GGGGSAGAGGGG | 0.6221 ± 0.0061
GGVEVAQGVVWC | 0.715 ± 0.066
RSTRLPGFNRRE | 0.662 ± 0.0062
FSAPLPPARSPS | 0.798 ± 0.11
GKECLIRKSHDG | 0.674 ± 0.011
SLPHSFIYYPLP | 0.755 ± 0.037
SFSSHRSPPPPL | 0.698 ± 0.13
SLGGCVMCGTTL | 0.708 ± 0.029

Sequence | protein stability index
AIRPPLPPPTPL | 0.674 ± 0.046
GPRRGRSGSGWM | 0.6499 ± 0.0057
PPAPPHHPPPSS | 0.679 ± 0.036
RSDRDGPPRGDS | 0.719 ± 0.087
SSGFVWVGVCVG | 0.5 ± 0.0069
LLLLLPPLPFVP | 0.66 ± 0.035
SPPLPHLPTPTP | 0.603 ± 0.14
EVYTWTGNMWNI | 0.673 ± 0.095
AVPGLPLWWQPS | 0.746 ± 0.028
VIRRLSNPCILR | 0.663 ± 0.067
AVMGQRQAESPV | 0.693 ± 0.067
KEQNKVHTQNKK | 0.755 ± 0.29
IADGSEIVRSLI | 0.71 ± 0.038
TERPPRRPKSQG | 0.715 ± 0.038
LPLPVLPCVPPV | 0.595 ± 0.028
RYEQRKNRRQKL | 0.799 ± 0.017
REGCYVRGGILL | 0.68 ± 0.072
PPPLPPSSPTYS | 0.646 ± 0.11
TLPFLYILDFFF | 0.589 ± 0.0081
RYAEVGSLVSFL | 0.714 ± 0.0087
GGVLAGEWGAGL | 0.624 ± 0.051
